From patent US20200385445A1 (COMPUGEN, published 2020)

Biological target: T1, human PVRIG (Poliovirus Receptor Related Immunoglobulin Domain Containing Protein), full length on cells (human, UniProt Q6DKI7 41-326)
T1 construct: whole, on cells; Over-expressed on HEK293 (some pools flag-tagged) or endogenous on Jurkat, CA46, T cells, NK cells, TILs; also called hPVRIG; HEK hPVRIG
T1 sequence (looked up): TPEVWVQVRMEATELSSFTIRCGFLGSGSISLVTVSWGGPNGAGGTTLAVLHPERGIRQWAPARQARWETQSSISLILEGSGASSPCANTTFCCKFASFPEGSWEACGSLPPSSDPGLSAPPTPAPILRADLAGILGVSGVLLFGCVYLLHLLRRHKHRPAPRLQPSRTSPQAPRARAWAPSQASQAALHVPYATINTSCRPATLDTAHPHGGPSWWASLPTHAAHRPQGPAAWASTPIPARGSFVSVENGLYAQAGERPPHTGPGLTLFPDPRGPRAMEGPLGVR
Experiment: FACS dose titration on PVRIG over-expressing HEK293 cells
Protocol: FACS screening of the reformatted antibodies was done similarly to the PPE based screen described herein, except that a dose-dependent titration of the purified antibodies was performed. The human PVRIG over-expressing HEK293 cells, or the un-transfected HEK293 cells, were incubated with varying concentrations (0-10 μg/ml) of the anti PVRIG antibodies or isotype controls in FACS buffer at 4° C. for 60 mins. […] Cells were washed twice and re-suspended in a final volume of 80 μl of FACS buffer and Propidium Iodide (Biolegend cat #421301) diluted 1:1000. Samples were analyzed using an Intellicyt HTFC screening system (Intellicyt). Data was analyzed using FlowJo (DeNovo), exported to Excel (Microsoft) and plotted in GraphPad Prism (GraphPad Software, Inc.).
All unique ELISA and FACS binders were reformatted for expression as human IgG1 molecules in Expi293 cells. […] These reformatted antibodies were tested for retained binding to PVRIG over-expressing HEK293 cells alongside an irrelevant human IgG1 isotype control. All antibodies were also tested against un-transfected HEK293 cells.

B1: CPA.7.004 human IgG1 (antibody, V domains shown)
VH: EVQLVQSGAEVKKPGASVKVSCKVSGYTLTELSMHWVRQAPGKGLEWMGGFDPEDGETIYAQKFQGRVTMTEDTSTDTAYMELSSLRSEDTAVYYCATVSRVRGVINYYYYMDVWGKGTTVTVSS
VL: DVVMTQSPLSLPVTPGEPASISCRSSQSLLYRNGNNYLDWYLQKPGQSPQLLIYLGSNRASGVPDRFSGSGSGTDFTLKISRVEAEDVGVYYCMQALQTPPTFGGGTKLEIKR
Kd: 21.7 nM

B2: CPA.7.022 human IgG1 (antibody, V domains shown)
VH: EVQLVQSGAEVKKPGASVKVSCKVSGYTLTELSMHWVRQAPGKGLEWMGGFDPEDGETIYAQKFQGRVTMTEDTSTDTAYMELSSLRSEDTAVYYCATGVPAAIGVYYYYYYMDVWGKGTTVTVSS
VL: DVVMTQSPLSLPVTPGEPASISCRSSQSLLYSNGYNYLDWYLQKPGQSPQLLISLGSNRASGVPDRFSGSGSGTDFTLKISRVEAEDVGVYYCMQALQSPVTFGGGTKVEIKR
Kd: 4.17 nM

B3: CPA.7.023 human IgG1 (antibody, V domains shown)
VH: EVQLVQSGAEVKKPGASVKVSCKVSGYTLTELSMHWVRQAPGKGLEWMGGFDPEDGETIYAQKFQGRVTMTEDTSTDTAYMELSSLRSEDTAVYYCATDSRDGPAARGGYYYYMDVWGQGTTVTVSS
VL: DVVMTQSPLSLPVTLGQPASISCRSSQSLLYINGYNYLDWYLQKPGQSPQLLIYLGSNRASGVPDRFSGSGSGTDFTLKISRVEAEDVGVYYCMQALQTPPTFGQGTKVEIKR
Kd: 4.08 nM

B4: CPA.7.011 human IgG1 (antibody, V domains shown)
VH: EVQLVQSGAEVKKPGASVKVSCKVSGYTLTELSMHWVRQAPGKGLEWMGGFDPEDGETIYAQKFQGRVTMTEDTSTDTAYMELSSLRSEDTAVYYCATGPAAAGVGYYYYMDVWGKGTTVTVSS
VL: DVVMTQSPLSLPVTPGEPASISCRSSQSLLYRNGYNYLDWYLQKPGQSPQLLIYLGSNRASGVPDRFSGSGSGTDFTLKISRVEAEDVGVYYCMQALQTPPTFGQGTKVEIKR
Kd: 66 nM

B5: CPA.7.024 human IgG1 (antibody, V domains shown)
VH: EVQLVQSGAEVKKPGSSVKVSCKASGGTFSSYAISWVRQAPGQGLEWMGGIIPIFGTANYAQKFQGRVTITADESTSTAYMELSSLRSEDTAVYYCARDAYYYDSSGYYNPDAFDIWGQGTMVTVSS
VL: DVVMTQSPLSLPVTPGEPASISCRSSQSLLHSNGYNYLDWYLQKPGQSPQLLIYLGSSRASGVPDRFSGSVSGTDFTLKISRVEAEDVGVYYCMQGLQTPRTFGRGTKLEIKR
Kd: 9.08 nM

B6: CPA.7.014 human IgG1 (antibody, V domains shown)
VH: EVQLVQSGAEVKKPGASVKVSCKVSGYTLTELSMHWVRQAPGKGLEWMGGFDPEDGETIYAQKFQGRVTMTEDTSTDTAYMELSSLRSEDTAVYYCATGVTTYYYYGMDVWGQGTTVTVSS
VL: DVVMTQSPLSLPVTPGEPASISCRSSQSLLYSNGNNFLDWYLQKPGQSPRLLISLGSNRASGVPDRFSGSGSGTDFTLKISRVEAEDVGIYYCMQALQTPPTFGQGTKVEIKR
Kd: 2.04 nM

B7: CPA.7.009 human IgG1 (antibody, V domains shown)
VH: EVQLVQSGAEVKKPGASVKVSCKVSGYTLTELSMHWVRQAPGKGLEWMGGFDPEDGETIYAQKFQGRVTMTEDTSTDTAYMELSSLRSEDTAVYYCATAKPGIAVAGQNYYYYYMDVWGKGTTVTVSS
VL: DVVMTQSPLSLPVTPGEPASISCRSSQSLLYRNGNNYLDWYLQKPGQSPQLLIYLGSNRASGVPDRFSGSGSGTDFTLKISRVEAEDVGVYYCMQALQTPPTFGGGTKLEIKR
Kd: 33 nM

B8: CPA.7.047 human IgG1 (antibody, V domains shown)
VH: EVQLVQSGAEVKKPGASVKVSCKVSGYTLTELSMHWVRQAPGKGLEWMGGFDPEDGETIYAQKFQGRVTMTEDTSTDTAYMELSSLRSEDTAVYYCATAFPEATISYYYYMDVWGKGTTVTVSS
VL: DVVMTQSPLSLPVTPGEPASISCRSSQSLLYRNGYNYLDWYLQKPGQSPQLLIYWGSYRASGVPDRFSGSGSGTDFTLKISRVEAEDVGVYYCMQAVQNPPTFGQGTKVEIKR
Kd: 5.36 nM

B9: CPA.7.040 human IgG1 (antibody, V domains shown)
VH: EVQLVQSGAEVKKPGASVKVSCKVSGYTLTELSMHWVRQAPGKGLEWMGGFDPEDGETIYAQKFQGRVTMTEDTSTDTAYMELSSLRSEDTAVYYCATGVPAAIGVYYYYYYMDVWGKGTTVTVSS
VL: DVVMTQSPLSLPVTPGEPASISCRSSQSLLYRNGYNYLDWYLQKPGQSPQLLIYWGSYRASGVPDRFSGSGSGTDFTLKISRVEAEDVGVYYCMQAVQNPPTFGQGTKVDIKR
Kd: 0.79 nM

B10: CPA.7.018 human IgG1 (antibody, V domains shown)
VH: EVQLVQSGAEVKKPGASVKVSCKVSGYTLTELSMHWVRQAPGKGLEWMGGFDPEDGETIYAQKFQGRVTMTEDTSTDTAYMELSSLRSEDTAVYYCATEVPMVRGARRYYYYMDVWGKGTTVTVSS
VL: DVVMTQSPLFLAVTPGEPASISCRSSQTLLYINENNYLDWYVQKPGQSPQLLIYLGSTRASGVPDRFSGGGSGTDFTLTISRVEAEDVGLYYCMQGLQTPPTFGQGTRLEIKR
Kd: 9.29 nM

B11: CPA.7.034 human IgG1 (antibody, V domains shown)
VH: EVQLVQSGAEVKKPGASVKVSCKVSGYTLTELSMHWVRQAPGKGLEWMGGFDPEDGETIYAQKFQGRVTMTEDTSTDTAYMELSSLRSEDTAVYYCATEDPGPVAGPYYYYGMDVWGQGTTVTVSS
VL: DVVMTQSPLVLPVTPGEPASISCRSSQSLLYINGYHYLDWYVQRPGQSPQLLIFLGSTRASGVPDRFSGSGSGTDFTLEISKVEAEDVGIYFCMQALQTPPTFGGGTKVEIKR
notes: also called CPA.7.34
Kd: 14.2 nM

B12: CPA.7.012 human IgG1 (antibody, V domains shown)
VH: EVQLVETGGGLIQPGRSLRLSCAASGFTFSSYAMHWVRQAPGKGLEWVAVISYDGSNKYYADSVKGRFTISRDNSKNTLYLQMNSLRAEDTAVYYCARDVMVYCSSTSCYFYGMDVWGQGTTVTVSS
VL: DIQMTQSPSSLSASVGDRVTVTCQASQDIRDYLNWYQKKPGKAPKLLIYDASNLEAGVPSRFSGSGSGTDFTFTISGLQPEDVATYYCQQFENLPITFGQGTRLEIKR
Kd: 0.3 nM

B13: CPA.7.016 human IgG1 (antibody, V domains shown)
VH: EVQLVQSGAEVKKPGSSVKVSCKTSGGTFSSSAISWVRQAPGQGFEWMGGIIPIYGITDYAQKFQGRVTITTDESTSTAYMELSSLTSEDTAVYYCARDDTARRVRGVPYYYYYAMDVWGQGTTVTVSS
VL: EIVLTQSPGTLSLSPGERATLSCRASQSVSSYLAWYQQKPGQAPRLLIYDASNRATGIPARFSGSGSGTDFTLTISSLQSEDFAVYYCQQYDDWPQTFGQGTRLEIKR
Kd: 22 nM

B14: CPA.7.033 human IgG1 (antibody, V domains shown)
VH: QVQLVQSGAEVKKPGSSVKVSCKASGGTFSSSAISWVRQAPGQGFEWMGGIIPIYGITDYAQKFQGRVTITTDESTSTAYMELSSLTSEDTAVYYCARDDTARRVRGVPYYYYYAMDVWGQGTTVTVSS
VL: ETTLTQSPAFMSATPGDEVNISCKASQDIDDDVSWYQQKPGGAPIFLIQEASTLVPGIPPRFSGSGFGTDFTLTIKNMESEDAAYYFCLQHDNLPLTFGGGTKVDIKR
Kd: 12.8 nM

B15: CPA.7.015 human IgG1 (antibody, V domains shown)
VH: QITLKESGGGVVQPGGSLRLSCAASGFTFSSYGMHWVRQAPGKGLEWVAFIRYDGSNKYYADSVKGRFTISRDNSKNTLYLQMNSLRAEDTAVYYCARDLFDFWWDGMDVWGQGTTVTVSS
VL: EIVLTQSPGTLSLSPGEKATLSCRVSQSVSSMYLAWYQQKPGQAPRLLIYGASYRATGIPDRFSGSGSGTDFNLTISRLEPEDFAVYYCQQYVSSPMYTFGLGTKLEIKR
Kd: 1.34 nM

B16: CPA.7.010 human IgG1 (antibody, V domains shown)
VH: EVQLVESGGGLVQPGRSLRLSCAASGFTFSSYAMHWVRQAPGKGLEWVAVISYDGSNKYYADSVKGRFTISRDNSKNTLYLQMNSLRAEDTAVYYCASSPIGYSYGYWGGMDVWGQGTTVTVSS
VL: QAVLTQPASLSASPGASASLTCTLRSGIDVRTNKIFWYQVKPGSPPQHLLTFQSDSDKQQGSGVPSRFSGSKDASANAGILIISGLQSEDEADYYCLIWHTSGWVFGGGTQLTVLG
Kd: 21.9 nM

B17: CPA.7.017 human IgG1 (antibody, V domains shown)
VH: QVQLVQSGAEVKKPGSSVKVSCKASGGTFNNYGISWVRQAPGKGLEWMGQIIPLFGTTKYAQKFQGRVTIAADEPTSTAYMELGSLRSEDTAIYYCARDRMAADGMAVFDYWGQGTLVTVSS
VL: QSVLTQPPSVSGTPGQKVIISCSGSSSNIGRHFVFWYQQLPGTAPKLLIYKNDERPSGVPDRFSGSKSGTSASLAVSGLRSEDEADYYCSSWDAALNGVVFGGGTKLTVLG
Kd: 1.82 nM

B18: CPA.7.019 human IgG1 (antibody, V domains shown)
VH: QVQLQESGPGLVKSSETLSLTCSVSGGSISNSNYYWGWIRQPPGKGLEWIGGIYYSGSTYYNPSLESRVTISEDTSKNQISLKLSSVTAADTAVYYCARGAWELSLGDWFDPWGPGTLVTVSS
VL: QSVLTQPPSVSGAPGQRVTISCTGSSSNIGAGYDIQWYQQLPGTAPKLLIYGNNNRPSGVPDRFSGSRSGTSASLAITGLQAEDEADYYCQSYDSSLSVYVVFGGGTQLTVLG
Kd: 0.45 nM
